Results on four molecules are retold here after paper PMC8586251, “Cryo-EM structure provides insights into the dimer arrangement of the O-linked β-N-acetylglucosamine transferase OGT” (Nature Communications, 2021).

The target of data set [1] is O-GlcNAc transferase OGT, full length, isoform 3, double mutant (W208A, I211A) (UniProt O15294).
Data set [2] deals with the molecule itself. The experiment in a line: SEC-MALS; SEC-MALLS; Superdex S200 10/300 GL in 20 mM HEPES 7.5, 200 mM NaCl, room temperature; 100 µl of 3 mg/ml OGT injected, 0.5 ml/min; dimer against monomer. Background: In gel filtration, larger molecules generally elute earlier.

“O-GlcNAc transferase OGT, full length, isoform 3, double mutant (W208A, I211A) (from UniProt O15294-1 1-1046) (enzyme)” came in with a relative second order rate constant of glycosyl transfer to TAB1 protein (fluorescent OGT activity assay), against wildtype OGT (% lower than wildtype) in data set [1] of 50.

B1: O-GlcNAc transferase OGT, full length, isoform 3, wildtype (construct for SEC-MALLS) (enzyme, UniProt O15294-1 1-1046, looked up)
chain: MASSVGNVADSTEPTKRMLSFQGLAELAHREYQAGDFEAAERHCMQLWRQEPDNTGVLLLLSSIHFQCRRLDRSAHFSTLAIKQNPLLAEAYSNLGNVYKERGQLQEAIEHYRHALRLKPDFIDGYINLAAALVAAGDMEGAVQAYVSALQYNPDLYCVRSDLGNLLKALGRLEEAKACYLKAIETQPNFAVAWSNLGCVFNAQGEIWLAIHHFEKAVTLDPNFLDAYINLGNVLKEARIFDRAVAAYLRALSLSPNHAVVHGNLACVYYEQGLIDLAIDTYRRAIELQPHFPDAYCNLANALKEKGSVAEAEDCYNTALRLCPTHADSLNNLANIKREQGNIEEAVRLYRKALEVFPEFAAAHSNLASVLQQQGKLQEALMHYKEAIRISPTFADAYSNMGNTLKEMQDVQGALQCYTRAIQINPAFADAHSNLASIHKDSGNIPEAIASYRTALKLKPDFPDAYCNLAHCLQIVCDWTDYDERMKKLVSIVADQLEKNRLPSVHPHHSMLYPLSHGFRKAIAERHGNLCLDKINVLHKPPYEHPKDLKLSDGRLRVGYVSSDFGNHPTSHLMQSIPGMHNPDKFEVFCYALSPDDGTNFRVKVMAEANHFIDLSQIPCNGKAADRIHQDGIHILVNMNGYTKGARNELFALRPAPIQAMWLGYPGTSGALFMDYIITDQETSPAEVAEQYSEKLAYMPHTFFIGDHANMFPHLKKKAVIDFKSNGHIYDNRIVLNGIDLKAFLDSLPDVKIVKMKCPDGGDNADSSNTALNMPVIPMNTIAEAVIEMINRGQIQITINGFSISNGLATTQINNKAATGEEVPRTIIVTTRSQYGLPEDAIVYCNFNQLYKIDPSTLQMWANILKRVPNSVLWLLRFPAVGEPNIQQYAQNMGLPQNRIIFSPVAPKEEHVRRGQLADVCLDTPLCNGHTTGMDVLWAGTPMVTMPGETLASRVAASQLTCLGCLELIAKNRQEYEDIAVKLGTDLEYLKKVRGKVWKQRISSPLFNTKQYTMELERLYLQMWEHYAAGNKPDHMIKPVEVTESA
notes: also called OGT wildtype; source: E. coli BL21-Gold(DE3), purified (HisTrap, Q Sepharose, Superdex 200)
Regarding B1, the stoichiometry N – broadly, the number of molecules, sites or subunits per partner or assembly – in data set [2] stood at 2.

B2: O-GlcNAc transferase OGT, full length, isoform 3, E206A (enzyme, UniProt O15294-1 1-1046, looked up)
chain: MASSVGNVADSTEPTKRMLSFQGLAELAHREYQAGDFEAAERHCMQLWRQEPDNTGVLLLLSSIHFQCRRLDRSAHFSTLAIKQNPLLAEAYSNLGNVYKERGQLQEAIEHYRHALRLKPDFIDGYINLAAALVAAGDMEGAVQAYVSALQYNPDLYCVRSDLGNLLKALGRLEEAKACYLKAIETQPNFAVAWSNLGCVFNAQGAIWLAIHHFEKAVTLDPNFLDAYINLGNVLKEARIFDRAVAAYLRALSLSPNHAVVHGNLACVYYEQGLIDLAIDTYRRAIELQPHFPDAYCNLANALKEKGSVAEAEDCYNTALRLCPTHADSLNNLANIKREQGNIEEAVRLYRKALEVFPEFAAAHSNLASVLQQQGKLQEALMHYKEAIRISPTFADAYSNMGNTLKEMQDVQGALQCYTRAIQINPAFADAHSNLASIHKDSGNIPEAIASYRTALKLKPDFPDAYCNLAHCLQIVCDWTDYDERMKKLVSIVADQLEKNRLPSVHPHHSMLYPLSHGFRKAIAERHGNLCLDKINVLHKPPYEHPKDLKLSDGRLRVGYVSSDFGNHPTSHLMQSIPGMHNPDKFEVFCYALSPDDGTNFRVKVMAEANHFIDLSQIPCNGKAADRIHQDGIHILVNMNGYTKGARNELFALRPAPIQAMWLGYPGTSGALFMDYIITDQETSPAEVAEQYSEKLAYMPHTFFIGDHANMFPHLKKKAVIDFKSNGHIYDNRIVLNGIDLKAFLDSLPDVKIVKMKCPDGGDNADSSNTALNMPVIPMNTIAEAVIEMINRGQIQITINGFSISNGLATTQINNKAATGEEVPRTIIVTTRSQYGLPEDAIVYCNFNQLYKIDPSTLQMWANILKRVPNSVLWLLRFPAVGEPNIQQYAQNMGLPQNRIIFSPVAPKEEHVRRGQLADVCLDTPLCNGHTTGMDVLWAGTPMVTMPGETLASRVAASQLTCLGCLELIAKNRQEYEDIAVKLGTDLEYLKKVRGKVWKQRISSPLFNTKQYTMELERLYLQMWEHYAAGNKPDHMIKPVEVTESA
notes: O-GlcNAc transferase OGT, isoform 3, UniProt O15294-1, full length, site-directed mutant; source: E. coli BL21-Gold(DE3), purified (HisTrap, Q Sepharose, Superdex 200)
As for B2, the “stoichiometry N” value in data set [2] was 2.

B3: O-GlcNAc transferase OGT, full length, isoform 3, E215A (enzyme, UniProt O15294-1 1-1046, looked up)
chain: MASSVGNVADSTEPTKRMLSFQGLAELAHREYQAGDFEAAERHCMQLWRQEPDNTGVLLLLSSIHFQCRRLDRSAHFSTLAIKQNPLLAEAYSNLGNVYKERGQLQEAIEHYRHALRLKPDFIDGYINLAAALVAAGDMEGAVQAYVSALQYNPDLYCVRSDLGNLLKALGRLEEAKACYLKAIETQPNFAVAWSNLGCVFNAQGEIWLAIHHFAKAVTLDPNFLDAYINLGNVLKEARIFDRAVAAYLRALSLSPNHAVVHGNLACVYYEQGLIDLAIDTYRRAIELQPHFPDAYCNLANALKEKGSVAEAEDCYNTALRLCPTHADSLNNLANIKREQGNIEEAVRLYRKALEVFPEFAAAHSNLASVLQQQGKLQEALMHYKEAIRISPTFADAYSNMGNTLKEMQDVQGALQCYTRAIQINPAFADAHSNLASIHKDSGNIPEAIASYRTALKLKPDFPDAYCNLAHCLQIVCDWTDYDERMKKLVSIVADQLEKNRLPSVHPHHSMLYPLSHGFRKAIAERHGNLCLDKINVLHKPPYEHPKDLKLSDGRLRVGYVSSDFGNHPTSHLMQSIPGMHNPDKFEVFCYALSPDDGTNFRVKVMAEANHFIDLSQIPCNGKAADRIHQDGIHILVNMNGYTKGARNELFALRPAPIQAMWLGYPGTSGALFMDYIITDQETSPAEVAEQYSEKLAYMPHTFFIGDHANMFPHLKKKAVIDFKSNGHIYDNRIVLNGIDLKAFLDSLPDVKIVKMKCPDGGDNADSSNTALNMPVIPMNTIAEAVIEMINRGQIQITINGFSISNGLATTQINNKAATGEEVPRTIIVTTRSQYGLPEDAIVYCNFNQLYKIDPSTLQMWANILKRVPNSVLWLLRFPAVGEPNIQQYAQNMGLPQNRIIFSPVAPKEEHVRRGQLADVCLDTPLCNGHTTGMDVLWAGTPMVTMPGETLASRVAASQLTCLGCLELIAKNRQEYEDIAVKLGTDLEYLKKVRGKVWKQRISSPLFNTKQYTMELERLYLQMWEHYAAGNKPDHMIKPVEVTESA
notes: as for B2
Consider B3, for which the “stoichiometry N” value in data set [2] is 2.
